Experimental data taken from patent US20150141347A1.

Tests used:
[1] = biological target: … (SEQ ID NO: 26) on HLA-A2 of pulsed T2 cells; experiment: cell-based or functional assay
[2] = biological target: … (SEQ ID NO: 23) on HLA-A2 of pulsed T2 cells; experiment: cell-based or functional assay
[3] = biological target: … (SEQ ID NO: 28) on HLA-A2 of pulsed T2 cells; experiment: cell-based or functional assay
[4] = biological target: NY-ESO-1 157-165 peptide … (SEQ ID NO: 2) on HLA-A2 of peptide-pulsed cells; experiment: cell-based or functional assay
[5] = biological target: … (SEQ ID NO: 27) on HLA-A2 of pulsed T2 cells; experiment: cell-based or functional assay
[6] = biological target: … (SEQ ID NO: 24) on HLA-A2 of pulsed T2 cells; experiment: cell-based or functional assay
[7] = biological target: … (SEQ ID NO: 25) on HLA-A2 of pulsed T2 cells; experiment: cell-based or functional assay
[8] = biological target: NY-ESO-1 peptide on HLA-A*02:01 (human); experiment: IFN-gamma ELISA; PBL transduced with 1G4-LY, after one OKT3 stimulation, peptide-pulsed T2 cells; full-length, on cells

**Q.** What does the source list for 1G4-LY TCR?
**A.** IFN-γ (pg/ml); Donor K PBL, T2 + 1 ng/µL peptide [1]: 884 pg/mL; IFN-γ (pg/ml); Donor K PBL, T2 + 10 ng/µL peptide [1]: 1110 pg/mL; IFN-γ (pg/ml); Donor L PBL, T2 + 1 ng/µL peptide [1]: 220 pg/mL; IFN-γ (pg/ml); Donor L PBL, T2 + 10 ng/µL peptide [1]: 297 pg/mL; IFN-γ (pg/ml); Donor K PBL, T2 + 1 ng/µL peptide [2]: 1780 pg/mL; IFN-γ (pg/ml); Donor K PBL, T2 + 10 ng/µL peptide [2]: 3270 pg/mL; IFN-γ (pg/ml); Donor L PBL, T2 + 1 ng/µL peptide [2]: 370 pg/mL; IFN-γ (pg/ml); Donor L PBL, T2 + 10 ng/µL peptide [2]: 1380 pg/mL; IFN-γ (pg/ml); Donor K PBL, T2 + 1 ng/µL peptide [3]: 0 pg/mL; IFN-γ (pg/ml); Donor K PBL, T2 + 10 ng/µL peptide [3]: 0 pg/mL; IFN-γ (pg/ml); Donor L PBL, T2 + 1 ng/µL peptide [3]: 82 pg/mL; IFN-γ (pg/ml); Donor L PBL, T2 + 10 ng/µL peptide [3]: 97 pg/mL; IFN-γ (pg/ml); Donor H after expanding numbers of cells, T2 + 0.1 ng/µl peptide [4]: 89 pg/mL; IFN-γ (pg/ml); Donor H after expanding numbers of cells, T2 + 1 ng/µl peptide [4]: 512 pg/mL; IFN-γ (pg/ml); Donor H after expanding numbers of cells, T2 + 10 ng/µl peptide [4]: 2970 pg/mL; IFN-γ (pg/ml); Donor H after expanding numbers of cells, T2 + 100 ng/µl peptide [4]: 4340 pg/mL; IFN-γ (pg/ml); Donor H after stimulation with OKT3, T2 + 0.1 ng/µl peptide [4]: 1400 pg/mL; IFN-γ (pg/ml); Donor H after stimulation with OKT3, T2 + 1 ng/µl peptide [4]: 1710 pg/mL; IFN-γ (pg/ml); Donor H after stimulation with OKT3, T2 + 10 ng/µl peptide [4]: 3020 pg/mL; IFN-γ (pg/ml); Donor H after stimulation with OKT3, T2 + 100 ng/µl peptide [4]: 3780 pg/mL; IFN-γ (pg/ml); Donor K PBL, T2 + 1 ng/µL peptide [4]: 678 pg/mL; IFN-γ (pg/ml); Donor K PBL, T2 + 10 ng/µL peptide [4]: 3760 pg/mL; IFN-γ (pg/ml); Donor L PBL, T2 + 1 ng/µL peptide [4]: 184 pg/mL; IFN-γ (pg/ml); Donor L PBL, T2 + 10 ng/µL peptide [4]: 754 pg/mL; IFN-γ (pg/ml); Patient 1 PBL S1D7, T2 + 0.1 ng/ml peptide [4]: 0 pg/mL; IFN-γ (pg/ml); Patient 1 PBL S1D7, T2 + 1 ng/ml peptide [4]: 677 pg/mL; IFN-γ (pg/ml); Patient 1 PBL S1D7, T2 + 10 ng/ml peptide [4]: 1090 pg/mL; IFN-γ (pg/ml); Patient 1 PBL S1D7, T2 + 100 ng/ml peptide [4]: 1600 pg/mL; IFN-γ (pg/ml); Patient 1 PBL S1D7, T2 + 1 µg/ml peptide [4]: 2170 pg/mL; IFN-γ (pg/ml); Patient 1 expanded PBL S2D9, T2 + 0.1 ng/ml peptide [4]: 1330 pg/mL; IFN-γ (pg/ml); Patient 1 expanded PBL S2D9, T2 + 1 ng/ml peptide [4]: 7260 pg/mL; IFN-γ (pg/ml); Patient 1 expanded PBL S2D9, T2 + 10 ng/ml peptide [4]: 16200 pg/mL; IFN-γ (pg/ml); Patient 1 expanded PBL S2D9, T2 + 100 ng/ml peptide [4]: 21600 pg/mL; IFN-γ (pg/ml); Patient 1 expanded PBL S2D9, T2 + 1 µg/ml peptide [4]: 30600 pg/mL; IFN-γ (pg/ml); Patient 2 PBL S1D7, T2 + 0.1 ng/ml peptide [4]: 40 pg/mL; IFN-γ (pg/ml); Patient 2 PBL S1D7, T2 + 1 ng/ml peptide [4]: 291 pg/mL; IFN-γ (pg/ml); Patient 2 PBL S1D7, T2 + 10 ng/ml peptide [4]: 879 pg/mL; IFN-γ (pg/ml); Patient 2 PBL S1D7, T2 + 100 ng/ml peptide [4]: 1280 pg/mL; IFN-γ (pg/ml); Patient 2 PBL S1D7, T2 + 1 µg/ml peptide [4]: 2440 pg/mL; IFN-γ (pg/ml); Patient 2 expanded PBL S2D9, T2 + 0.1 ng/ml peptide [4]: 662 pg/mL; IFN-γ (pg/ml); Patient 2 expanded PBL S2D9, T2 + 1 ng/ml peptide [4]: 2500 pg/mL; IFN-γ (pg/ml); Patient 2 expanded PBL S2D9, T2 + 10 ng/ml peptide [4]: 6800 pg/mL; IFN-γ (pg/ml); Patient 2 expanded PBL S2D9, T2 + 100 ng/ml peptide [4]: 10600 pg/mL; IFN-γ (pg/ml); Patient 2 expanded PBL S2D9, T2 + 1 µg/ml peptide [4]: 19400 pg/mL; lowest peptide concentration on T2 cells that was recognized (IFN-γ) [4]: 0.1 ng/mL; IFN-γ (pg/ml); Donor K PBL, T2 + 1 ng/µL peptide [5]: 457 pg/mL; IFN-γ (pg/ml); Donor K PBL, T2 + 10 ng/µL peptide [5]: 5670 pg/mL; IFN-γ (pg/ml); Donor L PBL, T2 + 1 ng/µL peptide [5]: 208 pg/mL; IFN-γ (pg/ml); Donor L PBL, T2 + 10 ng/µL peptide [5]: 1030 pg/mL; IFN-γ (pg/ml); Donor K PBL, T2 + 1 ng/µL peptide [6]: 0 pg/mL; IFN-γ (pg/ml); Donor K PBL, T2 + 10 ng/µL peptide [6]: 0 pg/mL; IFN-γ (pg/ml); Donor L PBL, T2 + 1 ng/µL peptide [6]: 225 pg/mL; IFN-γ (pg/ml); Donor L PBL, T2 + 10 ng/µL peptide [6]: 185 pg/mL; IFN-γ (pg/ml); Donor K PBL, T2 + 1 ng/µL peptide [7]: 0 pg/mL; IFN-γ (pg/ml); Donor K PBL, T2 + 10 ng/µL peptide [7]: 0 pg/mL; IFN-γ (pg/ml); Donor L PBL, T2 + 1 ng/µL peptide [7]: 148 pg/mL; IFN-γ (pg/ml); Donor L PBL, T2 + 10 ng/µL peptide [7]: 294 pg/mL; lowest peptide concentration recognised [8]: < 0.1 ng/mL

**Q.** wild-type human anti-NY-ESO-1 TCR (1G4) was tested. Which IFN-γ (pg/ml); Patient 1 PBL S1D7, T2 + 0.1 ng/ml peptide [4] did it give?
**A.** Its IFN-γ (pg/ml); Patient 1 PBL S1D7, T2 + 0.1 ng/ml peptide is 99 pg/mL.

**Q.** What about the IFN-γ (pg/ml); Patient 1 PBL S1D7, T2 + 1 ng/ml peptide [4] of the same substance?
**A.** The IFN-γ (pg/ml); Patient 1 PBL S1D7, T2 + 1 ng/ml peptide was 851 pg/mL.

**Q.** And the IFN-γ (pg/ml); Patient 1 PBL S1D7, T2 + 10 ng/ml peptide [4]?
**A.** Its IFN-γ (pg/ml); Patient 1 PBL S1D7, T2 + 10 ng/ml peptide is 1520 pg/mL.

**Q.** What about the IFN-γ (pg/ml); Patient 1 PBL S1D7, T2 + 100 ng/ml peptide [4] of the same substance?
**A.** Its IFN-γ (pg/ml); Patient 1 PBL S1D7, T2 + 100 ng/ml peptide is 2480 pg/mL.

**Q.** And the IFN-γ (pg/ml); Patient 1 PBL S1D7, T2 + 1 µg/ml peptide [4]?
**A.** Its IFN-γ (pg/ml); Patient 1 PBL S1D7, T2 + 1 µg/ml peptide is 2450 pg/mL.

**Q.** What about the IFN-γ (pg/ml); Patient 1 expanded PBL S2D9, T2 + 0.1 ng/ml peptide [4] of the same substance?
**A.** The IFN-γ (pg/ml); Patient 1 expanded PBL S2D9, T2 + 0.1 ng/ml peptide was 1280 pg/mL.

**Q.** What about the IFN-γ (pg/ml); Patient 1 expanded PBL S2D9, T2 + 1 ng/ml peptide [4] of the same substance?
**A.** Its IFN-γ (pg/ml); Patient 1 expanded PBL S2D9, T2 + 1 ng/ml peptide is 6990 pg/mL.

**Q.** And the IFN-γ (pg/ml); Patient 1 expanded PBL S2D9, T2 + 10 ng/ml peptide [4]?
**A.** The IFN-γ (pg/ml); Patient 1 expanded PBL S2D9, T2 + 10 ng/ml peptide was 13500 pg/mL.

**Q.** And the IFN-γ (pg/ml); Patient 1 expanded PBL S2D9, T2 + 100 ng/ml peptide [4]?
**A.** The IFN-γ (pg/ml); Patient 1 expanded PBL S2D9, T2 + 100 ng/ml peptide was 19400 pg/mL.

**Q.** And the IFN-γ (pg/ml); Patient 1 expanded PBL S2D9, T2 + 1 µg/ml peptide [4]?
**A.** The IFN-γ (pg/ml); Patient 1 expanded PBL S2D9, T2 + 1 µg/ml peptide was 26400 pg/mL.

**Q.** What about the IFN-γ (pg/ml); Patient 2 PBL S1D7, T2 + 0.1 ng/ml peptide [4] of the same substance?
**A.** Its IFN-γ (pg/ml); Patient 2 PBL S1D7, T2 + 0.1 ng/ml peptide is 41 pg/mL.

**Q.** And the IFN-γ (pg/ml); Patient 2 PBL S1D7, T2 + 1 ng/ml peptide [4]?
**A.** Its IFN-γ (pg/ml); Patient 2 PBL S1D7, T2 + 1 ng/ml peptide is 397 pg/mL.

**Q.** And the IFN-γ (pg/ml); Patient 2 PBL S1D7, T2 + 10 ng/ml peptide [4]?
**A.** The IFN-γ (pg/ml); Patient 2 PBL S1D7, T2 + 10 ng/ml peptide was 860 pg/mL.

**Q.** What about the IFN-γ (pg/ml); Patient 2 PBL S1D7, T2 + 100 ng/ml peptide [4] of the same substance?
**A.** Its IFN-γ (pg/ml); Patient 2 PBL S1D7, T2 + 100 ng/ml peptide is 1100 pg/mL.

**Q.** And the IFN-γ (pg/ml); Patient 2 PBL S1D7, T2 + 1 µg/ml peptide [4]?
**A.** The IFN-γ (pg/ml); Patient 2 PBL S1D7, T2 + 1 µg/ml peptide was 1960 pg/mL.

**Q.** And the IFN-γ (pg/ml); Patient 2 expanded PBL S2D9, T2 + 0.1 ng/ml peptide [4]?
**A.** The IFN-γ (pg/ml); Patient 2 expanded PBL S2D9, T2 + 0.1 ng/ml peptide was 747 pg/mL.

**Q.** What about the IFN-γ (pg/ml); Patient 2 expanded PBL S2D9, T2 + 1 ng/ml peptide [4] of the same substance?
**A.** Its IFN-γ (pg/ml); Patient 2 expanded PBL S2D9, T2 + 1 ng/ml peptide is 3550 pg/mL.

**Q.** What about the IFN-γ (pg/ml); Patient 2 expanded PBL S2D9, T2 + 10 ng/ml peptide [4] of the same substance?
**A.** Its IFN-γ (pg/ml); Patient 2 expanded PBL S2D9, T2 + 10 ng/ml peptide is 7350 pg/mL.

**Q.** And the IFN-γ (pg/ml); Patient 2 expanded PBL S2D9, T2 + 100 ng/ml peptide [4]?
**A.** Its IFN-γ (pg/ml); Patient 2 expanded PBL S2D9, T2 + 100 ng/ml peptide is 12700 pg/mL.

**Q.** What about the IFN-γ (pg/ml); Patient 2 expanded PBL S2D9, T2 + 1 µg/ml peptide [4] of the same substance?
**A.** Its IFN-γ (pg/ml); Patient 2 expanded PBL S2D9, T2 + 1 µg/ml peptide is 19500 pg/mL.
